The record followed here is PMC2670979.

In one assay the target is GST-Miro1 WT (UniProt Q8IXI2). Briefly: pull-down; as a5 but at 5 uM [Ca2+]free; band normalised to the level in 0 Ca2+.
Another assay addresses GST-Miro1 ΔEF (UniProt Q8IXI2). Described as above.

Sequence of KIF5 motors (endogenous, detected using a pan-KIF5 antibody) (Q2PQA9 whole entry): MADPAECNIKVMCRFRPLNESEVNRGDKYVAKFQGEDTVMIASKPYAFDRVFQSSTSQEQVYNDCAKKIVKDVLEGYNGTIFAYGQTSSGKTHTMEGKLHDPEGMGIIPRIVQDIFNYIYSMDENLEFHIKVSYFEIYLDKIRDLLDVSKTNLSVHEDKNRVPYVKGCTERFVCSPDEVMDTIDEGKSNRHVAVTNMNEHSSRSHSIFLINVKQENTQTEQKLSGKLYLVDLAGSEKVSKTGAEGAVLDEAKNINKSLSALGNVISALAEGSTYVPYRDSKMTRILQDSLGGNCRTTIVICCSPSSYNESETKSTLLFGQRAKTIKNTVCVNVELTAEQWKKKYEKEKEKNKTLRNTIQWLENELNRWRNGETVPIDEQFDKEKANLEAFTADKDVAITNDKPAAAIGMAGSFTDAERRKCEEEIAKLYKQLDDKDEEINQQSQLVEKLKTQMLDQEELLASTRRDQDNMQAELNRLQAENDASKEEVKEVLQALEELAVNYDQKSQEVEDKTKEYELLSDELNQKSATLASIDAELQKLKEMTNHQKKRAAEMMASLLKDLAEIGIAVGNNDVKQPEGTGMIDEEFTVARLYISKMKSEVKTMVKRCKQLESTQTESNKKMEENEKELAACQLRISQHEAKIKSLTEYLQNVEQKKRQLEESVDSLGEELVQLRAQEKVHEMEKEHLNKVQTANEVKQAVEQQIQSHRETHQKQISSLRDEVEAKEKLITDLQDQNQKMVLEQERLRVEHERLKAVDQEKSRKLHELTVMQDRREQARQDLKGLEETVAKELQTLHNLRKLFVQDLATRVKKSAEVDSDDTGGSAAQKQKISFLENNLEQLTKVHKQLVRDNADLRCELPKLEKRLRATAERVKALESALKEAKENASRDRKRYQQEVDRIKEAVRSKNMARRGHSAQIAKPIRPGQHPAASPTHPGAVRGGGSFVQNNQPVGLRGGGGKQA
Sequence of GST-Miro1 ΔEF (Q8IXI2 whole entry E208K/E328K): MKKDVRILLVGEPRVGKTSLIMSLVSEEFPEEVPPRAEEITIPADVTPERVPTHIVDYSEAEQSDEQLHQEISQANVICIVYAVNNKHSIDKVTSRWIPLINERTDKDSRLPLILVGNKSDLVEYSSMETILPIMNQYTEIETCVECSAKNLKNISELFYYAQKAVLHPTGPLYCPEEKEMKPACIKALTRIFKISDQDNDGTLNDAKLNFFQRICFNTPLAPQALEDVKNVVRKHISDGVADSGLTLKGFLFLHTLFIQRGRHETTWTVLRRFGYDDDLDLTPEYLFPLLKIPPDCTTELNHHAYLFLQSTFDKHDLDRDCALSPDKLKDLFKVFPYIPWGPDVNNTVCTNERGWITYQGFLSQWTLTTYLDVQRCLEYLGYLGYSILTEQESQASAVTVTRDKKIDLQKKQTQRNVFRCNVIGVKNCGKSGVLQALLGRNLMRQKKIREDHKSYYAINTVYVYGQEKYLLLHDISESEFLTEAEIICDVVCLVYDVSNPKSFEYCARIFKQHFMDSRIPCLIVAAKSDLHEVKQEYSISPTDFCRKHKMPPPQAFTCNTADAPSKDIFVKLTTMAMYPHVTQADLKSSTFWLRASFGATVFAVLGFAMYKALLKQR
Sequence of GST-Miro1 WT (Q8IXI2 whole entry): as the sequence (Q8IXI2 whole entry E208K/E328K) above, with K208E, K328E counted along it

As to “KIF5 motors (endogenous, detected using a pan-KIF5 antibody) (from UniProt Q2PQA9 1-963) (natural protein)”, the percent of the level in 0 [Ca2+], at 5 uM [Ca2+]free with GST-Miro1 WT was 15%. In the assay with GST-Miro1 ΔEF, this substance returned a percent of the level in 0 [Ca2+], at 5 uM [Ca2+] of 87%.
